Data published in US20250388667A1 (BIO THERA SOLUTIONS, published 2025).
Changes are numbered by the printed parent chain.

T1: Nectin-4 on T-47D cells (human, UniProt Q96NY8 32-510)
T1 construct: whole, on cells; endogenous expression; also called T-47D cells positive for Nectin-4 expression
T1 sequence (looked up): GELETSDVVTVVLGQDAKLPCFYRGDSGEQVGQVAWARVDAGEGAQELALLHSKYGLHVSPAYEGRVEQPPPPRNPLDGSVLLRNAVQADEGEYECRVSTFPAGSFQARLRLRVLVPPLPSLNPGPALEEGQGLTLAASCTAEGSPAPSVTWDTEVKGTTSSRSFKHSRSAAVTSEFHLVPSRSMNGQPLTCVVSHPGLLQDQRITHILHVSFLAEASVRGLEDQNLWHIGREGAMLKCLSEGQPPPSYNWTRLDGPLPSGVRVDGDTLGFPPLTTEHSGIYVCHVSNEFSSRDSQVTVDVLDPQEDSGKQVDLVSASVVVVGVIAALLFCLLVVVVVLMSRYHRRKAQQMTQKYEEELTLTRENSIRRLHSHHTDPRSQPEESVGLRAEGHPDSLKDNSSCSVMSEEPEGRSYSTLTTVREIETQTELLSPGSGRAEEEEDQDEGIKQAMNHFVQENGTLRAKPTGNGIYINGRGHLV

T2: hNectin-1 (ACRO, PV1-H5223) (human, UniProt Q15223 31-334)
T2 construct: bought
T2 sequence (looked up): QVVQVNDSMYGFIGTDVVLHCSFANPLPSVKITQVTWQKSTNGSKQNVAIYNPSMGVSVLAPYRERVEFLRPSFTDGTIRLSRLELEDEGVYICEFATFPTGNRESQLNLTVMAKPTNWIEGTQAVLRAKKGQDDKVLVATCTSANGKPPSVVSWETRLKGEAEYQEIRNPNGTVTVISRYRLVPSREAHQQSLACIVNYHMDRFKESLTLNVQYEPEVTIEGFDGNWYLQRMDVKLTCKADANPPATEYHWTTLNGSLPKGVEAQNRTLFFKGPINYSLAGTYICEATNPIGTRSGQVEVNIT

T3: hNectin-2 (ACRO, PV2-H52E2) (human, UniProt Q92692 32-360)
T3 construct: bought
T3 sequence (looked up): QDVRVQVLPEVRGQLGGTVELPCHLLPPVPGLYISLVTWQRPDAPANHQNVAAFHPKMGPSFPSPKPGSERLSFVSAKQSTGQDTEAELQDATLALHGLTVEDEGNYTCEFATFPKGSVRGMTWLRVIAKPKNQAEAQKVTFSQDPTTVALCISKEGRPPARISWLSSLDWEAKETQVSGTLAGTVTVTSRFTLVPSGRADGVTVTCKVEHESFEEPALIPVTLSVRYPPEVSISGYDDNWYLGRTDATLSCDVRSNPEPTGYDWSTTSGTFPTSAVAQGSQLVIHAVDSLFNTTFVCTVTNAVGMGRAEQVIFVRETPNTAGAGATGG

B1: antibody 1F3 (antibody, human IgG1, kappa, V domains shown)
VH: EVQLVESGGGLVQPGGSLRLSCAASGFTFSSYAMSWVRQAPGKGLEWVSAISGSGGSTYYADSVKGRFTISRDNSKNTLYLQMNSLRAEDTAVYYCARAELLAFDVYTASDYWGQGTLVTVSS
VL: DIQMTQSPSSLSASVGDRVTITCRASQGISSYLAWYQQKPGKAPKLLIYAASSLQSGVPSRFSGSGSGTDFTLTISSLQPEDFATYYCQQHYTTPPTFGQGTKVEIKR
notes: intact antibody
B2: antibody 10F4 (antibody, human IgG1, kappa, V domains shown)
VH: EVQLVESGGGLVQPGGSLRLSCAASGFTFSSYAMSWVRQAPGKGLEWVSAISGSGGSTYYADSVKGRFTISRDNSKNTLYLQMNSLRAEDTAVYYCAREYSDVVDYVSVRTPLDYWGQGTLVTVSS
VL: B1 VL
notes: intact antibody
B3: reference antibody ASG-22 (antibody, human IgG1, kappa, V domains shown)
VH: EVQLVESGGGLVQPGGSLRLSCAASGFTFSSYNMNWVRQAPGKGLEWVSYISSSSSTIYYADSVKGRFTISRDNAKNSLSLQMNSLRDEDTAVYYCARAYYYGMDVWGQGTLVTVSS
VL: B1 VL with L11V, S31G, Y32W, L46F, S53T, H91A, Y92N, T93S, T94F, Q100G
B4: antibody 1G8 (antibody, human IgG1, kappa, V domains shown)
VH: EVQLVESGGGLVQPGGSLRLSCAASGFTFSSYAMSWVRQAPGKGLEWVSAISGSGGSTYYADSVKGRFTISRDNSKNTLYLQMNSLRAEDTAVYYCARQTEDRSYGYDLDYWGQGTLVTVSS
VL: B1 VL
notes: intact antibody
B5: antibody 10A4 (antibody, human IgG1, kappa, V domains shown)
VH: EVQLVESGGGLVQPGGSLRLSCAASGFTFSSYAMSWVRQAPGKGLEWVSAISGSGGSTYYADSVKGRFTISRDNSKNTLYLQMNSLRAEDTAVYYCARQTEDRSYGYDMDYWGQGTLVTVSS
VL: B1 VL
notes: intact antibody
B6: antibody 1B4 (antibody, human IgG1, kappa, V domains shown)
VH: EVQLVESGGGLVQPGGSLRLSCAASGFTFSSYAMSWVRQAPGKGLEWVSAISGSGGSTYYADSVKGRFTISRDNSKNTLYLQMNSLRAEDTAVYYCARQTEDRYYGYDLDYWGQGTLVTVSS
VL: B1 VL
notes: intact antibody
B7: antibody 3A10 (antibody, human IgG1, kappa, V domains shown)
VH: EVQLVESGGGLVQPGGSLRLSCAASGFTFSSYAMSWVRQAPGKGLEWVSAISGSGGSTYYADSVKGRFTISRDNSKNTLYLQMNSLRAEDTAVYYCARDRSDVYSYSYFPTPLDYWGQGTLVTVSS
VL: B1 VL
notes: intact antibody
B8: antibody 1F3-2F3 (antibody, human IgG1, kappa, V domains shown)
VH: EVQLVESGGGLVQPGGSLRLSCAASGFNFSDYGMSWVRQAPGKGLEWVSRIDWDGGNTRYADSVKGRFTISRDNSKNTLYLQMNSLRAEDTAVYYCARAELLAFDVYTASDYWGQGTLVTVSS
VL: B1 VL
notes: intact antibody
B9: antibody 10F4-3 (antibody, human IgG1, kappa, V domains shown)
VH: EVQLVESGGGLVQPGGSLRLSCAASGFSFGDFAMSWVRQAPGKGLEWVSVIDGHTAYNSYADSVKGRFTISRDNSKNTLYLQMNSLRAEDTAVYYCAREYSDVVDYVSVRTPLDYWGQGTLVTVSS
VL: B1 VL
notes: intact antibody
B10: antibody 1F3-1G11 (antibody, human IgG1, kappa, V domains shown)
VH: EVQLVESGGGLVQPGGSLRLSCAASGYSFTGYGMSWVRQAPGKGLEWVSGISPSGGTIGYADSVKGRFTISRDNSKNTLYLQMNSLRAEDTAVYYCARAELLAFDVYTASDYWGQGTLVTVSS
VL: B1 VL
notes: intact antibody
B11: antibody 1F3-1B1 (antibody, human IgG1, kappa, V domains shown)
VH: B10 VH with Y27F, S28T, T30G, G31T, S52K, S54G, G55D, G56S, I58T, G59Y
VL: B1 VL
notes: intact antibody
B12: antibody 1F3-2B1 (antibody, human IgG1, kappa, V domains shown)
VH: B10 VH with S28N, T30D, G31N, G33A, S52K, S54D, G55S, G56A, I58T, G59Y
VL: B1 VL
notes: intact antibody
B13: antibody 10F4-5 (antibody, human IgG1, kappa, V domains shown)
VH: EVQLVESGGGLVQPGGSLRLSCAASGFIFDGYDMSWVRQAPGKGLEWVSVIKDHGGYKFYADSVKGRFTISRDNSKNTLYLQMNSLRAEDTAVYYCAREYSDVVDYVSVRTPLDYWGQGTLVTVSS
VL: B1 VL
notes: intact antibody
B14: antibody 1F3-1E1 (antibody, human IgG1, kappa, V domains shown)
VH: B10 VH with Y27F, T30D, G31D, G33A, G50I, S52Y, S54T, G56S, I58N, G59Y
VL: B1 VL
notes: intact antibody
B15: antibody 10F4-1 (antibody, human IgG1, kappa, V domains shown)
VH: EVQLVESGGGLVQPGGSLRLSCAASGDSFTNYWMSWVRQAPGKGLEWVSGISQGGSYAYYADSVKGRFTISRDNSKNTLYLQMNSLRAEDTAVYYCAREYSDVVDYVSVRTPLDYWGQGTLVTVSS
VL: B1 VL
notes: intact antibody
B16: antibody 1F3-2E8 (antibody, human IgG1, kappa, V domains shown)
VH: B10 VH with T30S, G31D, G50W, G55K, T57S, I58A, G59S
VL: B1 VL
notes: intact antibody

molecular target: T1, Nectin-4 on T-47D cells; test: FACS on T-47D cells, 10 µg/mL on ice, 0 h point of the endocytosis assay
Method: (§1) In this assay, the relative amount of antibodies remaining on the cell surface after co-incubation at 37° C. for a certain period of time was detected by FACS to reflect the endocytosis efficiency. The procedures are briefly described as follows: T-47D cells (human ductal breast cancer cells, derived from the Cell Bank of Chinese Academy of Sciences, Cat. No. TCHu 87); the antibodies were adjusted to 10 μg/mL and co-incubated with the cells on ice for 1 h; the cells were washed 3 times with pre-cooled PBS, and then placed at 37° C. and incubated for 0 h, 2 h and 4 h; 0.2% N₃Na was added to stop the endocytosis reaction; the cells were washed with PBS thrice, followed by the addition of the PE-labeled anti-human Fc secondary antibody (Invitrogen 12-4998-82); the cells were incubated at 4° C. for 30 min; the red fluorescence signal was detected on a flow cytometer.

| MFI (0 h) | Binder |
| --- | --- |
| 121000 MFI | B1 |
| 104000 MFI | B2 |
| 107000 MFI | B3 |
| 105000 MFI | B4 |
| 107000 MFI | B5 |
| 108000 MFI | B6 |
| 105000 MFI | B7 |

molecular target: T2, hNectin-1 (ACRO, PV1-H5223); test: ELISA, antigen coated, HRP-labeled anti-human-Kappa secondary antibody
Method: (§2) The binding activity of intact antibodies was detected by ELISA. The procedures are briefly described as follows: the hNectin-4-His antigen protein of Example 1 was immobilized at a concentration of 1 μg/mL on a plate; the plate was blocked with skimmed milk powder overnight, and then, serially diluted antibodies of interest were added for co-incubation (antibodies in Table 9 were serially 2-fold diluted from 2 μg/mL; antibodies in Tables 10 and 11 were serially 3-fold diluted from 10 μg/mL) at room temperature for 2 h; then an HRP-labeled anti-human-kappa (Sigma, A7164) secondary antibody was added for co-incubation for 1 h, followed by the addition of TMB (Huzhou InnoReagents, TMB-S-001) for chromogenic reaction, and the reaction was stopped with 0.1 M H₂SO₄; after the absorbance at OD450 was read on a microplate reader, the binding EC₅₀ value for each antibody was calculated by four-parameter fitting, and the binding activities of the antibodies were compared.
(§3) In this assay, the binding of different antibodies to human Nectin-4 homologous proteins hNectin-1 (ACRO, PV1-H5223), hNectin-2 (ACRO, PV2-H52E2), hNectin-3 (ACRO, PV3-H52E4), and hNectin-4-His was detected by ELISA to determine the specificity of the antibodies. For the methodology and procedures, see Example 4. Antigens of interest ([…]) were immobilized; after blocking, serially diluted antibodies (2-fold serially diluted from […]) were added, and HRP-labeled anti-human-Kappa secondary antibody was added for chromogenic reaction.

| binding result | Binder |
| --- | --- |
| no binding (tested: 2000 ng/mL) | B1 |
| no binding (tested: 2000 ng/mL) | B2 |
| no binding (tested: 2000 ng/mL) | B4 |

molecular target: T3, hNectin-2 (ACRO, PV2-H52E2); test: as above
Method: as §2, §3

| binding result | Binder |
| --- | --- |
| no binding (tested: 2000 ng/mL) | B1 |
| no binding (tested: 2000 ng/mL) | B2 |
| no binding (tested: 2000 ng/mL) | B4 |

molecular target: T1, Nectin-4 on T-47D cells; test: FACS on T-47D cells, 10 µg/mL on ice, 0 h point of the endocytosis assay; remark: another data set of the same source
Method: as §1

| MFI (0 h) | Binder |
| --- | --- |
| 58600 MFI | B3 |
| 69000 MFI | B8 |
| 61200 MFI | B9 |
| 60500 MFI | B10 |
| 65300 MFI | B11 |
| 59400 MFI | B12 |
| 63400 MFI | B13 |
| 73400 MFI | B14 |
| 58600 MFI | B15 |
| 58200 MFI | B16 |
